Data taken from US20150152171, “Modulation of TLR4-Signaling Pathway” (Rheinisch-Westfalische Technische, published 2015).

Biological target: hnRNP K full-length (463 aa) (UniProt P61978 P61978:1-463)
Assay: competition; 2R competes hnRNP K binding to TAK1 fragments 3, 5.1 and Akt2 fragments 1, 2
Conditions: tags: His
Experimental: To analyze whether recombinant hnRNP K directly interacts with the Akt2 mRNA 3′UTR, UV-crosslinking experiments were performed with the [³²P]-labeled Akt2 mRNA 3′UTR subdivided in two fragments (1 and 2) (FIG. 19, lanes 1-5 and 6-10). Recombinant hnRNP K was bound strongly to both fragments (FIG. 19, lanes 1 and 6) and to the DICE, but not to the TAK1 mRNA 3′UTR fragment 4 that served as negative control (FIG. 19, lanes 11 and 12). Furthermore, it was investigated whether the short RNA consisting of 2 repeats of the DICE (2R) can be used to compete the binding of hnRNP K to the Akt2 mRNA 3′UTR fragments 1 and 2.

B1: 2R (two DICE repeats, 38 nt) (ssRNA)
RNA: CCCCACCCUCUUCCCCAAGCCCCACCCUCUUCCCCAAG
  binding result: binds
